Results: patent publication US20050079151A1, “Therapeutic agents for apoptosis-related diseases” (priority 1998, published 2005)

Legend:
[1] = tested on: G401 cell lines derived from Wilms tumor; assay: Inhibitory effect on apoptosis induced by a carcinostatic (MTT method); assay type: cell-based; details: MK 1, 10 or 100 ng/mL + cisplatin 100 μM, 12 hour culture, compared with the cisplatin treated group
Procedure: Apoptosis was induced in G401 cell lines derived from Wilms tumor, infantile renal cancer, by a carcinostatic to examine the apoptosis-inhibitory effect of MK by the MTT method.
Five groups were prepared; the untreated group, the cisplatin (100 μM) treated group, and the MK (1, 10 or 100 ng/mL)+cisplatin treated groups.
G401 cells were suspended in the Dulbecco Modified Eagle Medium containing 10% fetal bovine serum (FBS) (10% FBS/DMEM) and seeded into a 96-well plate at 5000 cells/well. The plate was incubated in a CO2 incubator (37° C., 5% CO2; the same shall apply hereinbelow) so that the cells could attach to the plate.
The cells were washed with DMEM containing 0.1% FBS (0.1% FBS/DMEM) twice (hereafter, 0.1% FBS/DMEM was used for washing unless otherwise indicated), and cultured in 0.1% FBS/DMEM overnight. After culturing, MK was added to the MK treated groups at 1, 10 or 100 ng/ml. Each group was cultured for 6 hours. Six μl of 0.5 mg/ml cisplatin (100 μM) (Bristol-Myers Squib Company; Tokyo) was added to the cisplatin treated groups. Each group was cultured in 0.1% FBS/DMEM for 2 hours. […]
Fifteen μl of MTT reagent (5 mg/ml) (Wako Pure Chemical Laboratories; Osaka) were added to each well of the above-mentioned five groups and cultured for 4 hours. […] Absorbance (OD540-655) in each well was measured using a microplate reader.

[2] = tested on: renal uriniferous tubule cells; assay: Inhibitory effect on cisplatin-induced apoptosis in renal uriniferous tubule cells of MK knockout mice; assay type: in vivo, mouse
Procedure: Heterozygous 129/Sv knockout mice (male, 8- to 12-week old) in which parts of exons 2 and 3 of the MK gene were destroyed (Biochemistry 7, 1996, Volume 68, pp. 1239, 4-p-1244) were divided into two groups; the saline administration group and the MK administration groups (14 individuals each). As a control group, the untreated wild-type mice (four individuals) were prepared. Dosage of MK was 200 μg/kg and that of saline was 10 ml/kg.
MK or saline was intraperitoneally administered to the mice in two groups in the morning and cisplatin 9.3 mg/kg was intraperitoneally administered to the mice in two groups in the afternoon of the same day (this day is Day 0).
In the morning of Day 1, MK or saline was interperitoneally administered to each mouse in the same manner as on […].
On Day 2, four mice were selected from each group (the untreated wild-type mice group and the two treated groups) to collect urine and whole blood. Clots in the collected blood were retracted for 1 hour at 37° C., and centrifuged (4° C., 8000 rpm, 10 min) to separate the serum. […]
Blood urea nitrogen (BUN) and serum creatinine frequently used as indexes of renal dysfunction in day-to-day diagnosis were measured and proteins in urine were simply quantified. […]
On Day 4, DNA fragmentation in the kidney paraffin sections representating strong damage was analyzed by the TUNEL method (In situ Apoptosis Detection Kit; TaKaRa).

hippocampal neurocytes = assay: Apoptosis-inhibitory effect in vivo, transient forebrain ischemia, MK administration after the ischemic injury; parameters: species or system Mongolian gerbil; details: counted seven days after injury
Procedure: MK (2.0 μg) was injected into the ventricle of a Mongolian gerbil transient forebrain ischemia model 2, 4, 6, 12, or 24 hours after the ischemic injury. The numbers of surviving hippocampal neurocytes were counted seven days after the ischemic injury (FIG. 16). When MK was administered at 2 hours after the injury, the number of surviving neurocytes decreased, compared to the Sham-op group, while it was considerably higher than the saline administrated group.
The numbers of surviving hippocampal neurocytes in the groups administered 2, 4, 6, 12, or 24 hours after the ligation were 120±36 (n=4), 90±23 (n=6), 80±13 (n=6), 86±34 (n=6), and 93±22 (n=4) cells/mm, respectively (FIG. 16).

B1: MK: midkine, a heparin-binding growth and differentiation factor; human MK protein (SEQ ID NO: 3; or recombinant, secreted by yeast) (protein, UniProt P21741 21-143, looked up)
Midkine: VAKKKDKVKKGGPGSECAEWAWGPCTPSSKDCGVGFREGTCGAQTQRIRCRVPCNWKKEFGADCKYKFENWGACDGGTGTKVRQGTLKKARYNAQCQETIRVTKPCTPKTKAKAKAKKGKGKD
numbers of the surviving cells (MTT, absorbance OD540-655) [1]: increased numbers of the surviving cells in an MK concentration-dependent manner | number of TUNEL positive cells in kidney paraffin sections ([2]; Day 4, MK 200 μg/kg i.p., cisplatin 9.3 mg/kg i.p., versus saline administrated group): significantly decreased | renal dysfunction caused by cisplatin (BUN, serum creatinine, urine protein, HE sections) ([2]; MK 200 μg/kg i.p. daily, cisplatin 9.3 mg/kg i.p. on Day 0): effect of MK for relieving renal dysfunction caused by cisplatin was observed | numbers of surviving hippocampal neurocytes (hippocampal neurocytes; MK 2.0 μg into the ventricle 2 hours after the ligation): 120±36 cells/mm | numbers of surviving hippocampal neurocytes (hippocampal neurocytes; MK 2.0 μg into the ventricle 4 hours after the ligation): 90±23 cells/mm | numbers of surviving hippocampal neurocytes (hippocampal neurocytes; MK 2.0 μg into the ventricle 6 hours after the ligation): 80±13 cells/mm | numbers of surviving hippocampal neurocytes (hippocampal neurocytes; MK 2.0 μg into the ventricle 12 hours after the ligation): 86±34 cells/mm | numbers of surviving hippocampal neurocytes (hippocampal neurocytes; MK 2.0 μg into the ventricle 24 hours after the ligation): 93±22 cells/mm
